Here are results for three molecules from patent US20180112002A1 (University of California, published 2018).

B1: CD5 (receptor, human, UniProt P06127 25-495, looked up)
chain: RLSWYDPDFQARLTRSNSKCQGQLEVYLKDGWHMVCSQSWGRSSKQWEDPSQASKVCQRLNCGVPLSLGPFLVTYTPQSSIICYGQLGSFSNCSHSRNDMCHSLGLTCLEPQKTTPPTTRPPPTTTPEPTAPPRLQLVAQSGGQHCAGVVEFYSGSLGGTISYEAQDKTQDLENFLCNNLQCGSFLKHLPETEAGRAQDPGEPREHQPLPIQWKIQNSSCTSLEHCFRKIKPQKSGRVLALLCSGFQPKVQSRLVGGSSICEGTVEVRQGAQWAALCDSSSARSSLRWEEVCREQQCGSVNSYRVLDAGDPTSRGLFCPHQKLSQCHELWERNSYCKKVFVTCQDPNPAGLAAGTVASIILALVLLVVLLVVCGPLAYKKLVKKFRQKKQRQWIGPTGMNQNMSFHRNHTATVRSHAENPTASHVDNEYSQPPRNSHLSAYPALEGALHRSSMQPDNSSDSDYDLHGAQRL
notes: whole, on cells; Negative control for co-localization
B2: ARHGEF6 protein (Rho guanine nucleotide exchange factor 6) (other)
chain: MNPEEQIVTWLISLGVLESPKKTICDPEEFLKSSLKNGVVLCKLINRLMPGSVEKFCLDPQTEADCINNINDFLKGCATLQVEIFDPDDLYSGVNFSKVLSTLLAVNKATEDQLSERPCGRSSSLSAANTSQTNPQGAVSSTVSGLQRQSKTVEMTENGSHQLIVKARFNFKQTNEDELSVCKGDIIYVTRVEEGGWWEGTLNGRTGWFPSNYVREIKSSERPLSPKAVKGFETAPLTKNYYTVVLQNILDTEKEYAKELQSLLVTYLRPLQSNNNLSTVEVTSLLGNFEEVCTFQQTLCQALEECSKFPENQHKVGGCLLSLMPHFKSMYLAYCANHPSAVNVLTQHSDELEQFMENQGASSPGILILTTNLSKPFMRLEKYVTLLQELERHMEDTHPDHQDILKAIVAFKTLMGQCQDLRKRKQLELQILSEPIQAWEGEDIKNLGNVIFMSQVMVQYGACEEKEERYLMLFSNVLIMLSASPRMSGFIYQGKIPIAGTVVTRLDEIEGNDCTFEITGNTVERIVVHCNNNQDFQEWLEQLNRLIRGPASCSSLSKTSSSSCSAHSSFSSTGQPRGPLEPPQIIKPWSLSCLRPAPPLRPSAALGYKERMSYILKESSKSPKTMKKFLHKRKTERKPSEEEYVIRKSTAALEEDAQILKVIEAYCTSANFQQGHGSSTRKDSIPQVLLPEEEKLIIEETRSNGQTIMEEKSLVDTVYALKDEVRELKQENKRMKQCLEEELKSRRDLEKLVRRLLKQTDECIRGESSSKTSILP
notes: Endogenous protein of CLL and MEC1 cells
B3: CD19 (receptor, human, UniProt P15391 20-556, looked up)
chain: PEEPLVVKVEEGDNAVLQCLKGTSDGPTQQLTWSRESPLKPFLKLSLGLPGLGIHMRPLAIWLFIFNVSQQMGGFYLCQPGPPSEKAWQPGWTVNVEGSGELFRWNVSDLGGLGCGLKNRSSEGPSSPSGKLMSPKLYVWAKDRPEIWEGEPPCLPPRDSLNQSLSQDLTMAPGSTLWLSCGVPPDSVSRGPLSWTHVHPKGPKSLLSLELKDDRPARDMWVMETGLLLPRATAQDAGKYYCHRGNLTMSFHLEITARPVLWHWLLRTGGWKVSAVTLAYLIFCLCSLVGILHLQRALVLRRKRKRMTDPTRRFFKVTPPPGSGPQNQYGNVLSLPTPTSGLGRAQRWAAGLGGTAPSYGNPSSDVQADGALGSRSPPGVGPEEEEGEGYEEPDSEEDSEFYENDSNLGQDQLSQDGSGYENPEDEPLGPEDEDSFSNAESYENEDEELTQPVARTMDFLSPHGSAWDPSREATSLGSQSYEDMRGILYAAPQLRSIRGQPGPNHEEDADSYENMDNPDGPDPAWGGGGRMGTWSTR
notes: as for B1

The target in the assay “CD19” is B3. The assay is described as follows: fluorescence confocal microscopy, CLL cells. On the procedure:
(§1) FIG. 9. Negative control for co-localization analysis by confocal microscopy. CLL cells were stained with anti-CD5-Alexa-647 and anti-CD19-Alexa-488; anti-ROR1-Alexa-647 and anti-CD19-Alexa-488; or anti-CD5-Alexa-647 and anti-ROR2-Alexa-488 for evaluation by confocal microscopy (Scale bar: 2 μm). There is no co-localization between CD5 and CD19, ROR1 and CD19, or CD5 and ROR2.
(§2) However, it was difficult to detect co-localization of ROR1 with ROR2 in cultured CLL cells unless they were treated with exogenous Wnt5a (FIG. 3b).

Assay [1] concerns the target T1, ROR2 protein (tyrosine-protein kinase transmembrane receptor ROR2) (human, UniProt Q01974 34-943).
T1 construct: Endogenous ROR2 of CLL cells, normal B cells and MEC1 cells; also called NTRKR2
Kind of assay: fluorescence confocal microscopy, CLL cells. On the procedure:
as §1, §2

In assay [2] the target is T1, ROR2 protein (tyrosine-protein kinase …). The assay is described as follows: fluorescence confocal microscopy, Wnt5a-treated CLL cells.
Assay [3] concerns the target T2, ROR1 protein (tyrosine-protein kinase transmembrane receptor ROR1) (human, UniProt Q01973 30-937).
T2 construct: Endogenous ROR1 of CLL patients' cells, and full-length ROR1 expressed from a vector in the human CLL line MEC1 (MEC1-ROR1); also called NTRKR1; full-length ROR1
The assay is described as follows: fluorescence confocal microscopy, CLL cells. On the procedure:
as §1, §2

T1 sequence (Q01974 34-943 limits assumed): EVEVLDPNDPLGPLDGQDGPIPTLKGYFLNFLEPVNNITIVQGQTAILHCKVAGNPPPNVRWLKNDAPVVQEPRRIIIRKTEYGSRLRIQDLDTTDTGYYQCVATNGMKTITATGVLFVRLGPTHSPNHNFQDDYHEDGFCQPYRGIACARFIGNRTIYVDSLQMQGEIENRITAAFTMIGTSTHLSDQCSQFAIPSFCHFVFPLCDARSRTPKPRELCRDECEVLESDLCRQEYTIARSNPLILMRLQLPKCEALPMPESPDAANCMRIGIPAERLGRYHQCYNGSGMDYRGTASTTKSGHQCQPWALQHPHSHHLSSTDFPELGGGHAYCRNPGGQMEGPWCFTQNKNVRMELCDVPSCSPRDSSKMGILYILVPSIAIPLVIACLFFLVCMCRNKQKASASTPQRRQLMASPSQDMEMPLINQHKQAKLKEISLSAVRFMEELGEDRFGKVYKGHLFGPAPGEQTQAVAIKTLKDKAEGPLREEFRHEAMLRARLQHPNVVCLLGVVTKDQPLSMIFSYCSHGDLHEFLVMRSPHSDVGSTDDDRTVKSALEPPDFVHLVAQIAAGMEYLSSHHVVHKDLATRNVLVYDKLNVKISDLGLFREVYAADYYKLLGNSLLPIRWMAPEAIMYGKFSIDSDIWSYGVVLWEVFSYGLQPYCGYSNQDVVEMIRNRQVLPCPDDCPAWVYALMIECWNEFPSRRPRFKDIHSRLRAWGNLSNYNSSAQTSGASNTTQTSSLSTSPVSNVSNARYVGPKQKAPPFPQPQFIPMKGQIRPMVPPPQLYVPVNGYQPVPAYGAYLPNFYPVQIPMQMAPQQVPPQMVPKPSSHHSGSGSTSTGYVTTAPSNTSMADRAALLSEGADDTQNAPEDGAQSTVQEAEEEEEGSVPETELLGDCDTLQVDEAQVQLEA
T2 sequence (Q01973 30-937 limits assumed): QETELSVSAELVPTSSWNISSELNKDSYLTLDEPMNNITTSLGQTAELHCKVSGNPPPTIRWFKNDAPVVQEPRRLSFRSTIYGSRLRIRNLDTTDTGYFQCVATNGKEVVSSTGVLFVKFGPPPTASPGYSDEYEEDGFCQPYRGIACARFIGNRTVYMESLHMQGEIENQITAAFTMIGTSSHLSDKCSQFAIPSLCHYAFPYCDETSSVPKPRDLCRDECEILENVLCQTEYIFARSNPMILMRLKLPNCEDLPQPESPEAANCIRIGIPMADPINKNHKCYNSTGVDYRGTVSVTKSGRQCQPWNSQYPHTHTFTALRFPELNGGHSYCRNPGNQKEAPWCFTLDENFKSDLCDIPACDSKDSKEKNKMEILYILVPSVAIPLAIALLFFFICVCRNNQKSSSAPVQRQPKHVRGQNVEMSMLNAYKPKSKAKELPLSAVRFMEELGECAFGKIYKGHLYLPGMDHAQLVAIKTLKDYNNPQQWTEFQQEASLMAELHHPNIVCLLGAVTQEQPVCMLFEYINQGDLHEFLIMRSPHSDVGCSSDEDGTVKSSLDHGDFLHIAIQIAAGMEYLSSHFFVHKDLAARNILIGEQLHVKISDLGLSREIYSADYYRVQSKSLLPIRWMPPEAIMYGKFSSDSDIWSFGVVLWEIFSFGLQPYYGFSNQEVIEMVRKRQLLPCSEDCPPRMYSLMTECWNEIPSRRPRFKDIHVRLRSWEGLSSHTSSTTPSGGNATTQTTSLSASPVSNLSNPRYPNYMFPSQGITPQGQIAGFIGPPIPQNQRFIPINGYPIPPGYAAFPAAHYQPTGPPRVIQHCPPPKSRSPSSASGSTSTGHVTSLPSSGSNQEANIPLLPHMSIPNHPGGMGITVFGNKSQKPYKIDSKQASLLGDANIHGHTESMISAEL

With B1, the binding result (with CD19; in assay [1]) was “no binding” throughout.

Regarding B2, the binding result in assay [2] was “binds”.

In the case of B3, the binding result in assay [3] is reported as “no binding”.
